Entries after “also recorded” stand apart in the source; their conditions may differ.
Legend:
Ulp1 Hydrolase = target: T1, Ulp1 Hydrolase (Saccharomyces cerevisiae, UniProt Q02724); test: In vitro Ulp1 cleavage of His6SUMO-GFP under various additives/conditions; assay type: biochemical, yeast; conditions: 4 to 37° C.
T1 construct: C-terminal His-tagged SUMO hydrolase/protease Ulp (403–621)p (21) (27) was expressed from pET24d; His tag (C); made in house; host or cells: E. coli Rosetta (DE3) pLysS, vector pET24d
T1 sequence (Q02724 403-621): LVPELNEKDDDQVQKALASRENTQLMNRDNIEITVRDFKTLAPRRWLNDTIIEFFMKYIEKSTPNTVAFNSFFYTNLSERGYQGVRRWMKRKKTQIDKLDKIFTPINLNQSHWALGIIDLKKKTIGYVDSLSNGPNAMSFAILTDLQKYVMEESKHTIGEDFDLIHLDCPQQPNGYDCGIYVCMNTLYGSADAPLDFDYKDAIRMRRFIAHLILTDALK
Experimental: Ni-NTA purified His6SUMO-GFP was incubated with Ulp1 under the indicated conditions for one hour at room temperature unless indicated otherwise. Low molecular weight markers (LMW) are also provided.
Ni-NTA purified His6SUMO-GFP was incubated with Ulp1 and 10 mM of various protease inhibitors for 1 hour at room temperature. Lane markers: Norm is addition of Ulp1 and N-ethymaleimide (NEM) to the substrate at the same time, Pre is the incubation of Ulp1 with NEM prior to the addition of substrate, +Ve is the absence of any inhibitor, −Ve is in the absence of Ulp1, lane 1 is with E-64, lane 2 is with EDTA, lane 3 is with leupeptin, lane 4 is with NEM, lane 5 is with pepstatin, lane 6 is with TLCK. Low molecular weight markers (LMW) are also provided.
The effects of various additives/conditions and temperature upon the in vitro cleavage reaction were determined as follows: His6smt3MeGFP was expressed from pET24d in Rosetta (DE3) pLysS (Novagen). The recombinant protein was purified as before using Ni-NTA agarose (Qiagen) and then buffer exchanged into 20 mM Tris-HCl pH 8.0, 150 mM NaCl and 5 mM β-mercaptoethanol using a PD-10 column (AP Biotech). […]

E. coli [1] = test: GFP fluorescence in soluble fractions of E. coli; assay type: cell-based; conditions: 37° C., approx. 0.1 mg soluble protein, Ex 485 nm/Em 510 nm
Experimental: GFP fluorescence was measured in soluble fractions (approx. 0.1 mg of soluble protein in a final volume of 40 μl) using Fluoroscan Accent FL fluorometer (LabSystems) with Excitation 485 nm/Emission 510 nm filter set with the exposure set to 40 sec. The data are presented in Arbitrary Units (AU).
The design and construction of all the UBL E. coli expression vectors has been described above. The DNA sequences, accession numbers of the UBL-GFP fusion proteins, and translation frames are shown FIGS. 25–32. […] Un-fused GFP is generally poorly expressed in E. coli. […] Induced cells were broken by sonication and soluble proteins were analyzed on SDS-polyacrylamide gels. […] To determine if the fusion proteins were folded correctly, we determined the fluorescence properties of proteins in the soluble fraction.

E. coli [2] = test: Soluble versus insoluble fraction of fusion proteins expressed in E. coli; assay type: cell-based
Experimental: E. coli were harvested by mild centrifugation and washed once with PBS buffer. Cells were resuspended in 4 ml of PBS and ruptured by several pulses of sonication. Unbroken cells were removed by mild centrifugation (5 min at 1500×g) and supernatants were sonicated again to ensure complete cell lysis. An aliquot (5 μl) was mixed with 2% SDS to ensure that no viscosity is detected owing to lysis of unbroken cells. After ensuring that no unbroken cells remained in the lysate, insoluble material consisting of cell walls, inclusion bodies and membrane fragments was sedimented by centrifugation (18,000×g for 10 min). The supernatant was considered “Soluble fraction”.
The pellets were washed from any remaining soluble proteins, lipids and peptidoglycan as follows. Pellets were resuspended in 600 μl of PBS and to the suspensions 600 μl of solution containing 3 M urea and 1% Tri ton X100 was added. The suspension was briefly vortexed and insoluble material was collected by centrifugation as above. The PBS/Urea/Triton wash was repeated two more times to ensure complete removal of soluble proteins. The washed pellets, designated as “insoluble fraction,” consisted primarily of inclusion bodies formed by over expressed proteins. Approximately 10 μg of protein from each fraction was resolved on 12% SDS-PAGE minigels and stained with Coomassie Brilliant Blue.
Human nuclear receptor proteins, such as steroid receptors, contain ligand-binding domains. These proteins have proven hard to express in soluble form in E. coli. […] The ligand-binding domain of LXR was expressed as SUMO fusion in Rosetta plysS cell at 20° C. or 37° C. and the pattern of soluble and insoluble protein was analyzed. […] Further proof that SUMO promotes solubility of previously insoluble proteins was gained by expressing MAPKAP2 kinase as a SUMO-fusion in E. coli. […] Numbers at the top of the gel, 0.1, 0.25 and 0.5 refer to the mM concentration of inducer IPTG, in the culture. The original induced culture (I), supernatant from lysed cells (S) and resuspended pellet (P) were analyzed on 12% SDS-PAGE. […] Although induction at 37° C. allows greater degree of expression, more than 50% of the kinase is still insoluble under these conditions. Cleavage of SUMO-MAPKKAP2 kinase by SUMO hydrolase is described in Example III. Also see FIG. 18.

SUMO hydrolase Ulp1 = target: T2, SUMO hydrolase Ulp1 (Saccharomyces cerevisiae, UniProt Q02724); test: In vitro cleavage of purified SUMO fusion proteins by SUMO hydrolase Ulp1; assay type: biochemical, yeast; conditions: for In vitro cleavage by Ulp1 / SUMO hydrolase: purified fusion protein from E. coli
T2 construct: C-terminal His-tagged SUMO hydrolase/protease Ulp (403–621)p (21) (27) was expressed from pET24d; His tag (C); made in house; host or cells: E. coli Rosetta (DE3) pLysS, vector pET24d
T2 sequence (Q02724 403-621): T1 sequence (Q02724 403-621)

B1: Ulp1: C-terminal His-tagged yeast SUMO hydrolase/protease Ulp (403–621) expressed in E. coli (protein, UniProt Q02724 403-621, looked up, fragment)
chain: T1 sequence (Q02724 403-621)
modifications: C-terminal His tag
notes: C-terminal His-tagged yeast SUMO hydrolase/protease Ulp (403–621) expressed in E. coli
Effect of temperature on Ulp1 hydrolase activity (Ulp1 Hydrolase): extremely active at 37 °C as well as at 4 °C; also recorded: Ulp1 is active over a broad range of temperatures,

B2: Hub1-GFP (protein)
chain: MGHHHHHHGSDSEVNQEAKPEVKPEVKPETHINLKVSDGSSEIFFKIKKTTPLRRLMEAFAKRQGKEMDSLRFLYDGIRIQADQAPEDLDMEDNDIIEAHREQIGG
GFP fluorescence of soluble fraction (correct folding) (E. coli [1]): able to fluoresce | Solubility of UBL-GFP fusion (soluble panel of stained gel) (E. coli [2]; 37° C., FIG. 4A): able to solublize the GFP

B3: β-GUS: SUMO fusion of 65 KDa E. coli β-glucuronidase (SEQ ID NO: 23) (protein)
chain: MGHHHHHHGSDSEVNQEAKPEVKPEVKPETHINLKVSDGSSEIFFKIKKTTPLRRLMEAFAKRQGKEMDSLRFLYDGIRIQADQTPEDLDMEDNDIIEAHREQIGGMEFMLRPVETPTREIKKLDGLWAFSLDRENCGIDQRWWESALQESRAIAVPGSFNDQFADADIRNYAGNVWYQREVFIPKGWAGQRIVLRFDAVTHYGKVWVNNQEVMEHQGGYTPFEADVTPYVIAGKSVRITVCVNNELNWQTIPPGMVITDENGKKKQSYFHDFFNYAGIHRSVMLYTTPNTWVDDITVVTHVAQDCNHASVDWQVVANGDVSVELRDADQQVVATGQGTSGTLQVVNPHLWQPGEGYLYELCVTAKSQTECDIYPLRVGIRSVAVKGQQFLINHKPFYFTGFGRHEDADLRGKGFDNVLMVHDHALMDWIGANSYRTSHYPYAEEMLDWADEHGIVVIDETAAVGFNLSLGIGFEAGNKPKELYSEEAVNGETQQAHLQAIKELIARDKNHPSVVMWSIANEPDTRPQVHGNISPLAEATRKLDPTRPITCVNVMFCDAHTDTISDLFDVLCLNRYYGWYVQSGDLETAEKVLEKELLAWQEKLHQPIIITEYGVDTLAGLHSMYTDMWSEEYQCAWLDMYHRVFDRVSAVVGEQVWNFADFATSQGILRVGGNKKGIFTRDRKPKSAAFLLQKRWTGMNFGEKPQQGGKQ
In vitro cleavage by SUMO hydrolase after addition of urea (SUMO hydrolase Ulp1; 2M urea, 20 min at room temperature): complete cleavage | In vitro cleavage by Ulp1 / SUMO hydrolase (SUMO hydrolase Ulp1): partially resistant to cleavage

B4: SUMO-LXR: human liver X receptor ligand binding domain as SUMO fusion (SEQ ID NO: 25) (protein)
chain: MGHHHHHHGSDSEVNQEAKPEVKPEVKPETHINLKVSDGSSEIFFKIKKTTPLRRLMEAFAKRQGKEMDSLRFLYDGIRIQADQTPEDLDMEDNDIIEAHREQIGGMSLWLGAPVPDIPPDSAVELWKPGAQDASSQAQGGSSCILREEARMPHSAGGTAGVGLEAAEPTALLTRAEPPSEPTEIRPQKRKKGPAPKMLGNELCSVCGDKASGFHYNVLSCEGCKGFFRRSVIKGAHYICHSGGHCPMDTYMRRKCQECRLRKCRQAGMREECVLSEEQIRLKKLKRQEEEQAHATSLPPRRSSPPQILPQLSPEQLGMIEKLVAAQQQCNRRSFSDRLRVTPWPMAPDPHSREARQQRFAHFTELAIVSVQEIVDFAKQLPGFLQLSREDQIALLKTSAIEVMLLETSRRYNPGSESITFLKDFSYNREDFAKAGLQVEFINPIFEFSRAMNELQLNDAEFALLIAISIFSADRPNVQDQLQVERLQHTYVEALHAYVSIHHPHDRLMFPRMLMKLVSLRTLSSVHSEQVFALRLQDKKLPPLLSEIWDVHE
Fraction of protein solublized by SUMO fusion (E. coli [2]; induced at 20° C.): about 40% | Solubility of fusion protein (E. coli [2]; induced at 37° C.): hardly any SUMO-LXR was soluble

B5: SUMO kinase: MAPKAP2 kinase expressed as a SUMO-fusion in E. coli (SEQ ID NO: 29) (protein)
chain: MGHHHHHHGSDSEVNQEAKPEVKPEVKPETHINLKVSDGSSEIFFKIKKTTPLRRLMEAFAKRQGKEMDSLRFLYDGIRIQADQTPEDLDMEDNDIIEAHREQIGGMQFHVKSGLQIKKNAIIDDYKVTSQVLGLGINGKVLQIFNKRTQEKFALKMLQDCPKARREVELHWRASQCPHIVRIVDVYENLYAGRKCLLIVMECLDGGELFSRIQDRGDQAFTEREASEIMKSIGEAIQYLHSINIAHRDVKPENLLYTSKRPNAILKLTDFGFAKETTSHNSLTTPCYTPYYVAPEVLGPEKYDKSCDMWSLGVIMYILLCGYPPFYSNHGLAISPGMKTRIRMGQYEFPNPEWSEVSEEVKMLIRNLLKTEPTQRMTITEFMNHPWIMQSTKVPQTPLHTSRVLKEDKERWEDVKEEMTSALATMRVDYEQIK
Soluble form as fusion to SUMO (E. coli [2]; as summarised in Example III for FIG. 8): 95% | Soluble fraction of fusion protein (E. coli [2]; induced at 20° C. with 0.25 mM IPTG): 90% | Insoluble fraction of fusion protein (E. coli [2]; induction at 37° C.): more than 50% | In vitro cleavage by Ulp1 / SUMO hydrolase (SUMO hydrolase Ulp1): efficiently cleaved

From US7220576B2, “Methods and compositions for protein expression and purification” (Lifesensors, Inc., priority 2002, dated 2007)
